Reference: the DeepSol protein solubility set

Assay: soluble on expression in E. coli; label from the status in PepcDB or PDB records

| Sequence | soluble on expression in E. coli |
| --- | --- |
| MGSDKIHHHHHHMLDQAERLRNMALKKNAGEEIKRPVIITVTSGKGGVGKSNFVVNLSITLQQMNKKVLIFDADVGMGNDDILLGCISKYSVFDVIYNNMKIEDAIVEGPFGVKLLPGGSGITKFKDITEDQINAFVKKLASIGNFDYIIMDTGAGVNRSVLGFISCCEELIILTTPEPTSLTDAYSLFKAVVHFKIKSYAKVVINRVVDNKEGLETYKKFQSVAKKFLKADTEFLGSISEDSRIVKAVRNQTPFVVENPNCYAAKDIQYIANKLMGTTTKDNGLGIEGLFKKLFKIFS | not soluble |
| MGARQRMVASKGAVLSMLMDAYQKRDRVGLIAFKGDSAELLLPPTSSIELAQKYLQEMPTGGKTPISRGLVKGYEIIKSELRRDPDTCPFMVLISDGRANVSMNGEPPLHEIITIASRLKEEGIQSAVIDTESSMIKFGFAQQISTALGATYLTLENLKADSIVNAVRASAPFEIMMHPGVSSV | not soluble |
| MAHHHHHHMLRNALSCFLEQLELARLTETLPSNIDYAELVAMVQQRLQGAPGKTLGVFEHLRAKEIRLPEPDNPDYAVASMSAPLTVFLFDIEGTTTPLPFVQKVLMPLAESRVEAYMAAHFPADQAFVDLLTAAAERPSSPLAKAQTAYSKAFTDALATSGARDWKDEAANEVTRSDFCAFFHHQIKRGADHAAVKVVQAAIWAEVFAEGKLQSPVFPDVNTFFRFVGGPAMAERTRIALYSSGSVAAQKLVMGHTSYGDLNPFITAYFDPLLVGTKLMPKSYMKIRTLLVEQLDIPPESMHIVFVTDNTSEASAAETSGAVESAILCVRPLNDWITFDTMLSINVPYIMSFTQLMQRNCVVDMAKLVSDTKECIKQHNIS | soluble |
| MGSDKIHHHHHHMSFLIGPFLKSFIDNVIKDTVIPVKGSVVYCGLFGYAEHSGIYIGDNKIVHLDGSGIIEVVSPQQFIERLSGLNPAMSIYVSCNGSSATGTNTIAKRAKKMVGKSRKYHVILDNCHQFTSGCITGNFDNADNFLWMLKSTAGNKLSTNKWRVWERKYSS | not soluble |
| SSTTTGPEAAPKPSAKSIYEQRKRYSTVVMADVSQYHVNHLVTFCLGEEDGVHTVEDASRKLAVMDSQGRVWAQEMLLRVSPSQVTLLDPVSKEELESYPLDAIVRCDAVMPRGRSRSLLLLVCQEPERAQPDVHFFQGLLLGAELIREDIQGALQNYRSGRGERRAAALRATQEELRRGASPAAETPPLQRRPSVRLVINTVEPSAVRGRPQVESIPETEEARKPDQARTTSSADPTSPDLGPRGPELAGLQAERDVDILNHVFDDVESFVSRLQKSAEATRVLEHRERGRRTRRRAAGEGLLTLRAKPPTEAEYTDVLQKIKYAFSLLARLRGNIANPSSPELLHFLFGPLQMIVNTSGGPEFAKSVRRPHLTLEAVTLLRDNVTPGENELWTSLGDSWTCPGVELPPEEGSPYSPEFYNGWEPPATDPQGRPWEDPVEKQLQHEKRRRQQSAPQVAVNGKIQNWKLSPS | soluble |
| MSLNVIMAGIDYTLAPIDIREKFSFTKSTLQAVYNDLLKNENIFGAVIVSTCNRTELYLSCEEGLYINPFELLCDAANFDYEEYSNMHVLRTGVDVIRHLCELACGVKSQIWGEDQIITQVRNAIELAREMNASDSTLEVMFRIAVTSAKKVKTTLKLSSTERSIAYSALKIIKSKENISKALVIGNGEIGRLMASILIENGYDTTITLRRYRHGDNIIPLGAKTIEYVARYEKLKDCDVVISATLSPHYTLEIDKIDRIKYPRLFIDLAVPRDIDPKIKSLDNVELYDLDSIYAGEVDKNRTEQMIQVKKIIDKYIFDYYRWYEYRKRLVLTEGHHHHHH | soluble |
| PSEIFYQAKVREQKERHARYHDTTYNLEPDIKSTPGGLRDIHTLSWVARRHFGATSLYEMSRFGFLTDAEYRELVECQDFLWRVRFALHIELKRYDNRLTFAHQVQVARHLGYFGEGNRGIEMMMKEFFRTLRRVAELNKMLLKIFDKAILNNGEEAEAVIIDDDFQRRGNMIEARKPALFQARPETILDMFLHMASDSTIESVAPATMRQLRTARRRLN | not soluble |
| MSQLMNAHDRRNEPAPNAPPEFQLQNRTRPAPTPIEYITLSSDDEIEVIPPPPKRAKMMEEQKPKDLLENPQLPEVPSSSASFVIPQIVVDNEEVPEDPRMKTPSPIQGASVAMPVRARIQESPKVSRDPTPLSRASSVVIPEVPAVSEPEPLPVEVLAISIPTTSPDTAPSTSSSVETVESVTEVVAISSAEASSDAPARSPLKKKVANSVKPVVLPSRKSTRNKKDMNQIKEDEELVSNFNNGIGVISRGTIVPRGLSRTPFHFKKEATDDKAGKVKDMLKIDMQPVFTPAGHSSKDLIKRKARNSLEPSTSDADISFMKNERGKIRTGEKFQATIPDIEPSSTLTEYMDQEDKEEIFWETLDMDKDNLEESKKFHETLRNVYWRAIWRQFQGHIPFETALQHLMKNNLDFAQSLETIDENLKSLPQSFKEPCVAQVKIFDKLLQDKKTTRRQLQEKAMRNYHIAEVQQYHYRFRKFFKYQEKYGVVCNCAEKLCNNLKFEPRYGCTNCKKNVKSSSDHGATEKLCLICQTYQKLTGNVRPARNVEFCDDELEKIYHWSQKEEDLNRTLSREEFEELVREEKNKKWKNNDLSAEETAMLNQKELRIPNRRHRTHLSDQEKQARGEKICAQLQPYVLPHFSKCNCKRMGRSSWRCETEGKSSFSIQERKDYFREVRDCKGDLQQVARNLKVAPEVVRAFINIYGIEYDLEIYFPNKKLPNLIPIVYDIPPSNLPPIIPDGSSNSSSRDGSPYIPPEERSPKKRRSN | not soluble |
| MSEDWPQHFPPRGTVPDAEVYDQFISASTLQWWYVNAHLTVKGEDNSSLAFFASFFRQAGDNCPTAATKYYDACVWALIDLKNKKCYAESALDPESIDQLKLRLDPAVMGRKLEHVEVALLELLNKGRVPRPDRLLKRKAVYTQHPFSIALDDSCVMTIAQEGSARRYTFSLTNAADDVHVEVCLETQQQPVLHGKDGCVNGMYYYYFPSMSVTGYVVVKGLKREVTGLGWYDREVGGSTAEVDREAKYTWSWLSLHASNMSQLSIFYISGNAEDEGKERVIVETRADGSRHYHDDLIMETNKSWSSLVTFMQYPSEFRLCSASMGLDVTIHTAFDAQEIGTVLVGGAGFYEGVVEGSGVCSGDAVTLRGFFEYKKNAAPYRNTSELLKYVGSYVHGALEEIYPLAASDSWLSENVLGRYAMDRGAPADKICETLFRPVRSIIDRGGKSWRSLILVSCCNALSRQYFDCRRYIAVAELLHVGSLIIDDIQDNSVVRRGGKCVHVEYGVATAINAGSACYFMGPRAARIQDLPPEKASRIYQLYFDVLLAGHAGQGLDIYRLDYLMPKVVETGDASTLFDALDAIHTYKTGGAVGALCSMACVLCEAPTVLSEAVERFGLALGLAFQIVDDALNIRGFEENLKEEAEDIKDGKITYPTAIAMGRLEAADRQTLWAILRKPTKEAADIQQAVELIMKVDATSECFLIARHRLQEMWNALDPLLEDSFPKLLMRTFCSFLVERKY | soluble |
| MNDKKLLVAYDISSNRRRRKVARILEQCGIRINKSVFICSLRELTMDKLVEAVTSQTAKRDKVFFLPLCQHCYTAAWMSGHPTLPKSRRKRKSIVV | not soluble |
| MRLLDIWMRSAAALMLLSGAAFADVTVSQSNDPSVSLGGQLSALLGAERSALGTLPAQRLEQVAAAVARPEAKPEAPVKAVATKGNRGAKAADDAPAPRYDEAWLASQPATAKDSDEWKCLATALYFEARGESIQGQFAVAEVIMNRVDRPGYPGSICGVVRQGGQFSFMFDGKPETIREKAAFQRAGKIAALMLAGAPRQLTQGATHFHTRAVRPGWAHRFPRTAAIGAHLFYRQPGGS | not soluble |
| MSLNEKVALVTGASRGIGFEVAHALASKGATVVGTATSQASAEKFENSMKEKGFKARGLVLNISDIESIQNFFAEIKAENLAIDILVNNAGITRDNLMMRMSEDEWQSVINTNLSSIFRMSKECVRGMMKKRWGRIISIGSVVGSAGNPGQTNYCAAKAGVIGFSKSLAYEVASRNITVNVVAPGFIATDMTDKLTDEQKSFIATKIPSGQIGEPKDIAAAVAFLASEEAKYITGQTLHVNGGMYMA | soluble |
| MLTLIQGKKIVNHLRSRLAFEYNGQLIKILSKNIVAVGSLRREEKMLNDVDLLIIVPEKKLLKHVLPNIRIKGLSFSVKVCGERKCVLFIEWEKKTYQLDLFTALAEEKPYAIFHFTGPVSYLIRIRAALKKKNYKLNQYGLFKNQTLVPLKITTEKELIKELGFTYRIPKKRL | soluble |
